Experimental data published in the supplement of paper PMC12042874.
± gives the uncertainty stated by the source.

Test: amyloid nucleation score (Sup35N fusion, yeast selection) (log enrichment); library NNK1; higher = more nucleation; inactive = no reads after selection
Outline: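 The nucleation score is the DiMSum log enrichment of output over input reads, centred on the mode score of non-aggregating sequences. Only sequences with 100 or more input reads were scored, using Illumina sequencing of input and output plasmid inserts. Psi-negative yeast expressing Sup35N fused to peptides of 20 random codons were induced 24 hours with 100 μM copper sulfate and grown 7 days at 30°C on medium lacking adenine and uracil.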

| Substance | amyloid nucleation score |
| --- | --- |
| GICCYNFGRCKMRASPGLCG | -0.999 ± 1.3 |
| LPTHHCGLNVSSDGSNSELR | 0.068 ± 0.46 |
| CCIMSRIGTCLWVEWRWCRG | 0.243 ± 0.39 |
| TVNRG | 0.409 ± 1.4 |
| IRLLAKI | inactive |
| SWFHGLEGVLSHATMSLGFA | 0.1 ± 0.48 |
| PPWPVNSDDPGHYETSSNFS | 1.29 ± 0.73 |
| RNSIVGCGYDVGTHVSDLGP | -0.035 ± 0.41 |
| NGRLMVGMLHV | 0.719 ± 0.56 |
| CYYLFLHSCSYARGIFC | -0.366 ± 0.52 |
| TLSFIRAYSVPHQVLRMESL | 0.87 ± 0.64 |
| ILIEETFLS | inactive |
| GQKYHINVRERLNNLFGDCV | 0.537 ± 0.35 |
| MCLSPVNNVLLYFRFNKRAE | 3.38 ± 0.12 |
| FYAVVEQIKFMRSLNLNLLN | -0.08 ± 0.36 |
| IVYRPLAFVAVSCSESGHSV | 4.56 ± 0.087 |
| TSRRAEYRWSYQEKSGSSRS | 1.26 ± 0.45 |
| WVSSEWISTC | -0.268 ± 1.4 |
| FSGVMLPVLIISRF | inactive |
| DGYFQFKFYCTEMGMLFCFF | -1.24 ± 0.56 |
| WYLGNAPRGATRA | -0.229 ± 1 |
| FSDFN | -0.3 ± 0.42 |
